The text below walks through data of the supplement of paper PMC10567573.

Sequences and labels used below:
B1: MATN2 (parent)
chain: TDDSYSCHCLKGFTLNPDKKTCRR
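Further: lentivirally expressed fusions sorted by FACS into six bins by GFP to DsRed ratio, PSI derived from sequencing read proportions per bin multiplied by bin number.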

In the series the parent is B1. Put plainly: protein stability index of a GFP-peptide fusion (GPS, HEK-293T) (PSI 1-6); higher = more stable. Conditions: c terminus: a fixed tail appended.
As to TDDSYECHCLKGFTLNPDKKTCRR [S6E], the protein stability index is 2.31.

TDDSYVCHCLKGFTLNPDKKTCRR [S6V]: the protein stability index was 3.42.

Turning to TDDSYYCHCLKGFTLNPDKKTCRR [S6Y], the protein stability index is 2.12.

For TDDSYTCHCLKGFTLNPDKKTCRR [S6T], the protein stability index came to 2.19.

With TDDSYGCHCLKGFTLNPDKKTCRR [S6G], the protein stability index was 2.4.

Consider TDDSYKCHCLKGFTLNPDKKTCRR [S6K], for which the protein stability index is 3.07.

Regarding TDDSYICHCLKGFTLNPDKKTCRR [S6I], the protein stability index worked out at 1.89.

As for TDDSYQCHCLKGFTLNPDKKTCRR [S6Q], the protein stability index amounted to 1.76.

Turning to TDDSYCCHCLKGFTLNPDKKTCRR [S6C], the protein stability index worked out at 2.55.

With TDDSYWCHCLKGFTLNPDKKTCRR [S6W], the protein stability index came out at 2.32.

For TDDSYRCHCLKGFTLNPDKKTCRR [S6R], the protein stability index came to 2.4.

As to TDDSYFCHCLKGFTLNPDKKTCRR [S6F], the protein stability index was found to be 1.26.

As to TDDSYPCHCLKGFTLNPDKKTCRR [S6P], the protein stability index amounted to 2.5.

TDDSYLCHCLKGFTLNPDKKTCRR [S6L]: the protein stability index stood at 2.15.

Take TDDSYHCHCLKGFTLNPDKKTCRR [S6H]: the protein stability index turned out to be 2.55.

In the case of TDDSYNCHCLKGFTLNPDKKTCRR [S6N], the protein stability index stood at 1.93.

As to TDDSYDCHCLKGFTLNPDKKTCRR [S6D], the protein stability index was 2.94.

For TDDSYMCHCLKGFTLNPDKKTCRR [S6M], the protein stability index came out at 1.68.

With MDDSYSCHCLKGFTLNPDKKTCRR [T1M], the protein stability index is 2.47.

For the variant WDDSYSCHCLKGFTLNPDKKTCRR [T1W], the protein stability index was determined as 2.35.

Take CDDSYSCHCLKGFTLNPDKKTCRR [T1C]: the protein stability index was 2.

In the case of SDDSYSCHCLKGFTLNPDKKTCRR [T1S], the protein stability index is 2.63.

For LDDSYSCHCLKGFTLNPDKKTCRR [T1L], the protein stability index came to 2.36.

Turning to ADDSYSCHCLKGFTLNPDKKTCRR [T1A], the protein stability index came out at 2.47.

With VDDSYSCHCLKGFTLNPDKKTCRR [T1V], the protein stability index came to 3.42.

Take HDDSYSCHCLKGFTLNPDKKTCRR [T1H]: the protein stability index turned out to be 2.7.

With DDDSYSCHCLKGFTLNPDKKTCRR [T1D], the protein stability index came to 2.55.

On to PDDSYSCHCLKGFTLNPDKKTCRR [T1P], for which the protein stability index amounted to 2.81.

As for GDDSYSCHCLKGFTLNPDKKTCRR [T1G], the protein stability index stood at 2.71.

As for RDDSYSCHCLKGFTLNPDKKTCRR [T1R], the protein stability index amounted to 2.95.

Take EDDSYSCHCLKGFTLNPDKKTCRR [T1E]: the protein stability index amounted to 2.09.

For NDDSYSCHCLKGFTLNPDKKTCRR [T1N], the protein stability index turned out to be 1.86.

In the case of QDDSYSCHCLKGFTLNPDKKTCRR [T1Q], the protein stability index was 1.75.

KDDSYSCHCLKGFTLNPDKKTCRR [T1K]: the protein stability index worked out at 1.75.

In the case of FDDSYSCHCLKGFTLNPDKKTCRR [T1F], the protein stability index came to 2.21.

Consider IDDSYSCHCLKGFTLNPDKKTCRR [T1I], for which the protein stability index was 2.1.

For TDDSPSCHCLKGFTLNPDKKTCRR [Y5P], the protein stability index stood at 2.14.

With TDDSISCHCLKGFTLNPDKKTCRR [Y5I], the protein stability index amounted to 2.06.

TDDSGSCHCLKGFTLNPDKKTCRR [Y5G]: the protein stability index is 2.69.

As for TDDSASCHCLKGFTLNPDKKTCRR [Y5A], the protein stability index stood at 3.04.

For the variant TDDSKSCHCLKGFTLNPDKKTCRR [Y5K], the protein stability index came to 2.65.

Turning to TDDSQSCHCLKGFTLNPDKKTCRR [Y5Q], the protein stability index turned out to be 3.42.

On to TDDSRSCHCLKGFTLNPDKKTCRR [Y5R], for which the protein stability index came out at 2.

In the case of TDDSNSCHCLKGFTLNPDKKTCRR [Y5N], the protein stability index stood at 3.36.

With TDDSLSCHCLKGFTLNPDKKTCRR [Y5L], the protein stability index turned out to be 3.53.

As for TDDSMSCHCLKGFTLNPDKKTCRR [Y5M], the protein stability index was determined as 3.58.

Turning to TDDSHSCHCLKGFTLNPDKKTCRR [Y5H], the protein stability index stood at 2.66.

Regarding TDDSESCHCLKGFTLNPDKKTCRR [Y5E], the protein stability index came to 2.74.

On to TDDSDSCHCLKGFTLNPDKKTCRR [Y5D], for which the protein stability index worked out at 2.72.

Regarding TDDSSSCHCLKGFTLNPDKKTCRR [Y5S], the protein stability index was 2.66.

For TDDSTSCHCLKGFTLNPDKKTCRR [Y5T], the protein stability index turned out to be 2.58.

TDDSFSCHCLKGFTLNPDKKTCRR [Y5F]: the protein stability index came out at 2.36.

Turning to TDDSVSCHCLKGFTLNPDKKTCRR [Y5V], the protein stability index was found to be 2.86.

As to TDDSWSCHCLKGFTLNPDKKTCRR [Y5W], the protein stability index was 2.23.

As for THDSYSCHCLKGFTLNPDKKTCRR [D2H], the protein stability index was 2.15.

Regarding TFDSYSCHCLKGFTLNPDKKTCRR [D2F], the protein stability index came out at 1.41.

Consider TGDSYSCHCLKGFTLNPDKKTCRR [D2G], for which the protein stability index is 2.98.

In the case of TADSYSCHCLKGFTLNPDKKTCRR [D2A], the protein stability index is 1.88.

For the variant TMDSYSCHCLKGFTLNPDKKTCRR [D2M], the protein stability index stood at 2.09.

With TRDSYSCHCLKGFTLNPDKKTCRR [D2R], the protein stability index was found to be 2.29.

TIDSYSCHCLKGFTLNPDKKTCRR [D2I]: the protein stability index was determined as 2.02.

For the variant TCDSYSCHCLKGFTLNPDKKTCRR [D2C], the protein stability index was determined as 1.88.

Regarding TLDSYSCHCLKGFTLNPDKKTCRR [D2L], the protein stability index stood at 2.81.

In the case of TKDSYSCHCLKGFTLNPDKKTCRR [D2K], the protein stability index turned out to be 2.85.

Regarding TEDSYSCHCLKGFTLNPDKKTCRR [D2E], the protein stability index is 1.98.

TPDSYSCHCLKGFTLNPDKKTCRR [D2P]: the protein stability index worked out at 1.66.

In the case of TSDSYSCHCLKGFTLNPDKKTCRR [D2S], the protein stability index is 2.11.

In the case of TWDSYSCHCLKGFTLNPDKKTCRR [D2W], the protein stability index turned out to be 2.24.

On to TYDSYSCHCLKGFTLNPDKKTCRR [D2Y], for which the protein stability index was found to be 1.26.

As for TQDSYSCHCLKGFTLNPDKKTCRR [D2Q], the protein stability index was determined as 1.82.

Consider TNDSYSCHCLKGFTLNPDKKTCRR [D2N], for which the protein stability index worked out at 2.32.

Consider TTDSYSCHCLKGFTLNPDKKTCRR [D2T], for which the protein stability index is 2.08.

For the variant TDESYSCHCLKGFTLNPDKKTCRR [D3E], the protein stability index was 1.73.

Turning to TDNSYSCHCLKGFTLNPDKKTCRR [D3N], the protein stability index worked out at 2.1.

As for TDRSYSCHCLKGFTLNPDKKTCRR [D3R], the protein stability index was 2.2.

In the case of TDLSYSCHCLKGFTLNPDKKTCRR [D3L], the protein stability index stood at 2.36.

Regarding TDGSYSCHCLKGFTLNPDKKTCRR [D3G], the protein stability index came out at 2.36.

TDPSYSCHCLKGFTLNPDKKTCRR [D3P]: the protein stability index turned out to be 2.93.

Take TDFSYSCHCLKGFTLNPDKKTCRR [D3F]: the protein stability index was found to be 1.67.

TDVSYSCHCLKGFTLNPDKKTCRR [D3V]: the protein stability index is 2.41.

With TDASYSCHCLKGFTLNPDKKTCRR [D3A], the protein stability index was found to be 2.24.

With TDISYSCHCLKGFTLNPDKKTCRR [D3I], the protein stability index amounted to 1.91.

For the variant TDHSYSCHCLKGFTLNPDKKTCRR [D3H], the protein stability index stood at 2.15.

In the case of TDTSYSCHCLKGFTLNPDKKTCRR [D3T], the protein stability index came to 2.01.

For the variant TDWSYSCHCLKGFTLNPDKKTCRR [D3W], the protein stability index came out at 1.41.

Take TDSSYSCHCLKGFTLNPDKKTCRR [D3S]: the protein stability index was 2.24.

For TDMSYSCHCLKGFTLNPDKKTCRR [D3M], the protein stability index came out at 2.31.

On to TDCSYSCHCLKGFTLNPDKKTCRR [D3C], for which the protein stability index was 2.17.

Take TDKSYSCHCLKGFTLNPDKKTCRR [D3K]: the protein stability index came to 1.93.

As for TDQSYSCHCLKGFTLNPDKKTCRR [D3Q], the protein stability index worked out at 2.13.

Take TDYSYSCHCLKGFTLNPDKKTCRR [D3Y]: the protein stability index came out at 1.76.

For TDDSYSCRCLKGFTLNPDKKTCRR [H8R], the protein stability index is 2.51.

Turning to TDDSYSCICLKGFTLNPDKKTCRR [H8I], the protein stability index was 2.27.

Take TDDSYSCQCLKGFTLNPDKKTCRR [H8Q]: the protein stability index came to 2.18.
